Tested on: Nc1nc2c(ncn2[C@@H]2O[C@H](COP(=O)(O)OP(=O)(O)OP(=O)(O)O)[C@@H](O)[C@H]2O)c(=O)[nH]1
Assay: purified protein
Conditions: 59 nM GST-FlhFBb; GTP 0-100 μM; room temperature

“rFlhFBb (BB0270, GST-FlhFBb) (Borreliella burgdorferi B31)” showed a Km of 10.71 ± 2.08 µM, a Vmax of 113 µmol/min and a kcat of 0.0318 ± 0.00133 s⁻¹. For the same substance, the kcat/Km was 2970 M⁻¹ s⁻¹.

From publication PMC8085991
